Data from the nanobody polyreactivity screen of Harvey et al. (2022).

Assay: yeast display, Sf9 membrane polyspecificity reagent, FACS + sequencing; frameworks hold sequencing errors
Outline: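 Polyreactivity labels are assigned by the sorting gate from which each nanobody was recovered. The gates were low and high (top ~1%), set on anti-HA fluorescence for expression and streptavidin fluorescence for reagent binding. Before sorting, galactose-induced (36–48 hours) yeast display cells were stained for 1 hour at 4 °C with 10% biotinylated, detergent-solubilized Sf9 membrane reagent.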
For “QVQLVESGGGLVQAGGSLRLISAASGSIFDEYAMGWYRQAPGKERELVAAISSSGTSTYYADSVKGRFTISRDNAKNTVYLQMNSLKPEYTAVYYCAARSAFLKSGYLMDYWGHGTQVTVSS”, the “polyreactivity (PSR sort gate)” value was “low polyreactivity”. With “QVQLVESGGGLVQAGGSLRLMCAASGSTFRRNAMGWYRQAPGKERELVASISWRAGSTYYADSVKGRFTISRDNAKNTVYLQMNSLKQEDTAVYYCAASYYYYPSWEYEYWGQGTQVTVSS” the “polyreactivity (PSR sort gate)” value was “high polyreactivity”. In the case of “QVQLVESGGGLVQAGGSLRLNCAASGFTFYTYAMGWYRQAPGKERELVAAITSGGGTYYADSVKGRFTISRDNAKYSVYLQMNSLKPEDTAVYYCNRASRRGYYYPYNYWGQGTQVTVSS”, the “polyreactivity (PSR sort gate)” value is reported as “high polyreactivity”. In the case of “QVQLVESGGGLVQAGGSLRLNCAASGIIFIVYRMGWYRQAPGKERELVASINYGNGSTYYADSVKGRFTISRDNAKTTVYLQMNSLKQEDTAVYYCNADYTGTRTDSVTPEYEYWGQGTQVTVSS”, the “polyreactivity (PSR sort gate)” value is reported as “low polyreactivity”. With “QVQLVESGGGLVQAGGSLRLNCAASGITCEYYAMGWYREAPGKERDLVAAISWSGGSTYYADSVKGRFTNSRDNANNTVYLQINSLKTEDTAVYDFYAVGFTYLDLYGYWGQGTQLTVSS” the “polyreactivity (PSR sort gate)” value was “high polyreactivity”. With “QVQLVESGGGLVQAGGSLRLRCAASANTFGFYAMGWYRQAPGKERELVAGITSGDSTYYADSVKGRFTISRDNAKNTVYLQMNSLKPEDSAVYYCATAPYVSSRRYGPYEYWGQGTQVTVSS” the “polyreactivity (PSR sort gate)” value was “low polyreactivity”. In the case of “QVQLVESGGGLVQAGGSLRLRCAASARTFGKYAMGWYRQAPGKERELVASNSLSGGSTYYADSVKGRFTISRDNAKNTVYLQMNSLKPEDTAVYSCAAKHGWYGLGYWGQGTQVTVSS”, the “polyreactivity (PSR sort gate)” value is reported as “low polyreactivity”. For “QVQLVESGGGLVQAGGSLRLRCAASGFTFHRYAMGWYRPAPGKERELVAGITRRSGSTFYADSVKGRFTISRDNAKNTVYLQMNSLKPEDTAVYYCAATVPGLHWIYDYWGQGTQVTVSS”, the “polyreactivity (PSR sort gate)” value was “high polyreactivity”. In the case of “QVQLVESGGGLVQAGGSLRLRCAASGFTFYRYAMGWYRQAPGKERELVAAISQRGGTTYYADSVKGRFTISRDNSKNTVYLQMNSLKPDDPAVYYCAARGRAYQNAYEYDYWGQGTQVTVSS”, the “polyreactivity (PSR sort gate)” value is reported as “high polyreactivity”. With “QVQLVESGGGLVQAGGSLRLRCAASGFTSYINAMGWYRQAPGKERELVAGITWSTGNTYYADSVKGRFTISRDNAKNTVYLQMNSLKPEDTAVYYCAADFYVAYVGVQPYWMDYWGQGTEVTVSS” the “polyreactivity (PSR sort gate)” value was “low polyreactivity”. With “QVQLVESGGGLVQAGGSLRLRCAASGGNFDNYAMGWYRQAPGKERELVAAISRSGSSTFYADSVNGRFTISRDNAKNTVYLQMNSLKPEDTAVYYCSARYYYFAVYYGYIFEYDYWGQGTQLTVSS” the “polyreactivity (PSR sort gate)” value was “low polyreactivity”. For “QVQLVESGGGLVQAGGSLRLRCAASGIFAFYAMGWYRQAPGKERELVAGIDDGGSTDYADSVKGRFTISRDNAKNTVYLQMNSLKPEDTAVYYCAATERLEVWSRPYVWVTLDYRGQGTQVTVSS”, the “polyreactivity (PSR sort gate)” value was “low polyreactivity”. With “QVQLVESGGGLVQAGGSLRLRCAASGITFKWYAMGWYRQATGKEREFVAIISTRAGSTYYADSVKGRFTISRDNAKNTVSLQMNSLIPEDSAVYYCNAVRSRGLHRRGDFDYWGQGTQVTVSS” the “polyreactivity (PSR sort gate)” value was “high polyreactivity”. For “QVQLVESGGGLVQAGGSLRLRCAASGITFSWYDMGWYRQAPGKERELVAAISWSGGRTYYADSVKGRFTISRDNAKNTVYLQMNSLKPEDTAVYYCNAVGVGYVGYLYGYLGQGTQVTVSS”, the “polyreactivity (PSR sort gate)” value was “high polyreactivity”. For “QVQLVESGGGLVQAGGSLRLRCAASGITLLNYAMGWYRQAPWKERELVAAISWSGGRTYYADSVKGRFTMSRDNAKNTDYLHMNSLNPQDTAVYYCAAARGVNSYGYWGQGTQVTVSS”, the “polyreactivity (PSR sort gate)” value was “high polyreactivity”. In the case of “QVQLVESGGGLVQAGGSLRLRCAASGITTRTYAMGWYRQAPGKERELVAAISDSGDRTYYADSVKGRFTISRDKAKNTVYFQMNSVKPEDTAVYYCAVDGPGPRCEFWGQGTKVTVSS”, the “polyreactivity (PSR sort gate)” value is reported as “low polyreactivity”. In the case of “QVQLVESGGGLVQAGGSLRLRCAASGLMFYDNMGCYRQAPGKERELVAAISSSGGSTSYADSVKGRFTISRDNAKNTVYLQMNSLKPEDTAVYYCAAKWSLVRDCPKYDYWGQGTQVTVSS”, the “polyreactivity (PSR sort gate)” value is reported as “low polyreactivity”. With “QVQLVESGGGLVQAGGSLRLRCAASGLTFAYNTMGWYRQAPGKEREFVASISSSGGNTYYADSVKGRFTISRDNAKNTVYLQMNSLKPEDTAVYYCAAKKKYHYVASYKRFEYWGQGTQVTVSS” the “polyreactivity (PSR sort gate)” value was “low polyreactivity”. With “QVQLVESGGGLVQAGGSLRLRCAASGLTFTYYAMGWYRQAPGKERELVAAISSGGNTNYADSVKGRFTISRDNAKNTVYLQMNSLKPEDTGVYYCAADDYYDHRVIYRSWYDYWGQGTQVTVSS” the “polyreactivity (PSR sort gate)” value was “low polyreactivity”. For “QVQLVESGGGLVQAGGSLRLRCAASGRIFGYYPMGWYRQAPGKERELDADITESGTSTYYADSVKGRFTISRDNAKNTVYLQMNSLKRVDTAVYYCAAGYWWRYALYGYWGQGTQVTVSS”, the “polyreactivity (PSR sort gate)” value was “low polyreactivity”. In the case of “QVQLVESGGGLVQAGGSLRLRCAASGRIFPLYAMGWYRQAPGKERELVATISYSGSSTYYADSVKGRFTISRDYAKNSVYLQMNSLKPEDTAVFYFNADAFGPPGVEYYYRGQGTQVTVSS”, the “polyreactivity (PSR sort gate)” value is reported as “low polyreactivity”. In the case of “QVQLVESGGGLVQAGGSLRLRCAASGRIFRYYAMGWYRQAPGKARELVARITSSGSTYYADSVKGRFTISRDNAKNTVYLQMNSLKPEDTAVYYCAADWYRGGIVDSWGQGTQVTVSS”, the “polyreactivity (PSR sort gate)” value is reported as “high polyreactivity”. In the case of “QVQLVESGGGLVQAGGSLRLRCAASGRIRYYGIGCYRQAPGKERELVAAITWRAGRTYYADSVKGRFTISRDNANITVYLHMNSLKPEDSAVYYCAAAIYSRSFRVDYWGQGTQVSVSS”, the “polyreactivity (PSR sort gate)” value is reported as “high polyreactivity”. In the case of “QVQLVESGGGLVQAGGSLRLRCAASGRTFFVYTMGWYRQAPGKERELVAAITSDTSTTYADSVKGRFTISRDNAKNTVYLQMISLKPEDTAVYYCAAEGYVGYYDYDYWGQGTQVTVSS”, the “polyreactivity (PSR sort gate)” value is reported as “low polyreactivity”. In the case of “QVQLVESGGGLVQAGGSLRLRCAASGRTFSHYAMGWYRQAAGKESELVATITRNGGITYYADSVKGRFTISRDNAKNTVYLQMNSLKPEDTAVYYCNKRWGGPIQFDYWGQGTQVTVSS”, the “polyreactivity (PSR sort gate)” value is reported as “low polyreactivity”. With “QVQLVESGGGLVQAGGSLRLRCAASGRTFWRYAMGWYRQAPGKEREFVAAISSSGGNTYYADSVKGRFTITRDNANNTVYLQTNSLKPEDTAVYYCAAYYITALGIKDYVRYYWGQGTQVTVSS” the “polyreactivity (PSR sort gate)” value was “high polyreactivity”. For “QVQLVESGGGLVQAGGSLRLRCAASGRTFYPYAMGWYRQAPGKERELVAAINWSGTSTYYADSVKGRFTISRDNAKNTVYLQMNSLKPEDTAVYYCAAKQYPVLHYSLTEADMDYWGQGTQVTVSS”, the “polyreactivity (PSR sort gate)” value was “low polyreactivity”. For “QVQLVESGGGLVQAGGSLRLRCAASGRTLSSYAMGWYREAPGKERELVAAITRSGGSTYYADSVNGRFTISRDIAKNTVYLQMNSLKPEDTAVYYCAADGYRRYGSWGQGTQVTVSS”, the “polyreactivity (PSR sort gate)” value was “high polyreactivity”. With “QVQLVESGGGLVQAGGSLRLRCAASGRTLYRYAMGWYRQAPGKEREFVAAISSSGGSTYYADSVKGSFTISRDNAKNTVYLQMNSLKPEDTAVYYCAARYGSSYAWSNYWGQGTQVTVSS” the “polyreactivity (PSR sort gate)” value was “high polyreactivity”. With “QVQLVESGGGLVQAGGSLRLRCAASGSIFGLYAMGWYRQAPGKERELVAAINQSGGSTTYADSVKGRCTISRDNAKTPVYLQMNSLKPEATAGYSCPADSVGDYGYQVYASWGYEDEYCGQGTQVTVSS” the “polyreactivity (PSR sort gate)” value was “low polyreactivity”. For “QVQLVESGGGLVQAGGSLRLRCAASGSIFKPYAMGWYRQAPGNERELVAAINRGGTSTYYADSVKGRFTISRDNAKNTVYFQMNSLKPEDTAVYYCAAPNRYSVPMYYWGQGTQVTVSS”, the “polyreactivity (PSR sort gate)” value was “low polyreactivity”. With “QVQLVESGGGLVQAGGSLRLRCAASGSIFNSYAMGWYIQAPGKERELVAAISIRGTRTYYADSVKGRFTISRDNAKNTVYLQMNSLKPEDTAVYYCAADASYTEGMDYWGQGTQVTVLS” the “polyreactivity (PSR sort gate)” value was “high polyreactivity”. In the case of “QVQLVESGGGLVQAGGSLRLRCAASGSIFRRYAMGRYRQAPGKERELVATITSTDSTNYADSVKGRFTISRDNAKNTVYLQMNSLKPEDTAVYYCAKRPYDYRLNSEYYYWGQGTQVTVSS”, the “polyreactivity (PSR sort gate)” value is reported as “low polyreactivity”. For “QVQLVESGGGLVQAGGSLRLRCAASGSTFINNAMGWYRQAPGKERELVAAISGSGVSTYYADSVKGRFTISRDNAKNTVYLQMNSLKPEDTAVYYCNKRYRNYFWYKPYSTKYEYWGQGTQVTVSS”, the “polyreactivity (PSR sort gate)” value was “high polyreactivity”. In the case of “QVQLVESGGGLVQAGGSLRLRCAASGSTFPPNAMGWYRQAPGKERELVAVISNGGSNTRYADSVKGRFTISRDHAKNTVYLQMNSLKPEDTAVYYCAADYEYSGYGYWGQGTQVTVSS”, the “polyreactivity (PSR sort gate)” value is reported as “high polyreactivity”. In the case of “QVQLVESGGGLVQAGGSLRLRCAASGSTFRQYAMGWYRQAPGKERELVAAISSGGRTNYADSVKGRFTISRDNAKNTVYLQMNSLKPEDTAVYYCAADIRRRVPVRGYYYWGQGTQVTVSS”, the “polyreactivity (PSR sort gate)” value is reported as “high polyreactivity”. With “QVQLVESGGGLVQAGGSLRLRCAASGSTYVYAIGWYRQAPGKDRELVASISWSDSSTYYADSVKGRFTISRDNAKNTVYLQMNSLKPEETAFYYCNADQGTRDSDYWGQGTQVTVSS” the “polyreactivity (PSR sort gate)” value was “low polyreactivity”. With “QVQLVESGGGLVQAGGSLRLRCAASGYTFPSNAKGWYRQAPGKERELVAPISSGGRTNYADSVKGRFTISRDNAKNTVYLLMKSLKPEDTAVYYSNADGGPGYPRAYDYWGQVTQVTVSS” the “polyreactivity (PSR sort gate)” value was “low polyreactivity”. In the case of “QVQLVESGGGLVQAGGSLRLRCAASGYTLGPYAMGWYRQAPGKEREEVAALSWGGGRTYYADSVKGRFTISRDNAKNTVYLQMNSLKPEDTAVYYCGAKWSHVRDGPKYDYWGQGTQVTVSS”, the “polyreactivity (PSR sort gate)” value is reported as “low polyreactivity”. With “QVQLVESGGGLVQAGGSLRLRCAATGFIFSSYAMGWYRQAPGKERELVAAINRSGSTYYADSVKGRFTISRDNAKNTVYLQMNSLKPEDTADYYCNARRYYYRYRNYDYWGQGTQVTVSS” the “polyreactivity (PSR sort gate)” value was “high polyreactivity”. With “QVQLVESGGGLVQAGGSLRLRCAATGSIFTKYAMGWYRQAPGKERELVAAISWSGSRTRYADSVKGRFTISRDNAKNTVYLQMNSLKPEDTAVYYCAAEIAASYRPEYDYWGQGTQVTVSS” the “polyreactivity (PSR sort gate)” value was “high polyreactivity”. In the case of “QVQLVESGGGLVQAGGSLRLRCADSGRNFVSNAMGWYRQAPGKERELVAAISKSGARTSYADSVKGRFTISRDNAKNTVYLQMNRLKPEDTAVYYCAAPVRWSGGGEYPNYYWGQGTQVTVSS”, the “polyreactivity (PSR sort gate)” value is reported as “high polyreactivity”. With “QVQLVESGGGLVQAGGSLRLRCADSGSTFYDNAMGWYRQATGKVRELVATISDSGGRTYYADSVKGRFTISRDNAKNTVYLQMNSLKPEDTAVYYCAADNYYITTVTDMYYWGQGTQVTVSS” the “polyreactivity (PSR sort gate)” value was “low polyreactivity”.
